# Assay: soluble fraction after stress (log2 fold change); higher = more stays soluble; pooled small domains, quantitative proteomics
# Conditions: stress: pH 4
# Method in brief: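 How much of each domain stays soluble after acid stress, expressed as a fold change, is used to gauge aggregation propensity. Pooled custom libraries of small domains underwent pH 4 stress before high-throughput quantitative proteomics. A higher log2 value means more of the domain stayed soluble.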
row,Sequence,soluble fraction (log2)
1,HMVWTAGEVVERIRERVGHPATIRELMQVLTIPPEDRHRFRRRIMQLVEAGELIRIRGNRYGLAD,0.124
2,HMVYNGYYAKSFNGYVVILNGDEKTVYEYTQIPIHLLPEDIRSSVMSGYYLENETDLYNFLENYS,-0.211
3,HMWAVDFVLLDKDDQRIGNAVAYRDDRTKGMDEEVYRTVPEEELYASTGIQKQIFNSIYQLMAWKK,-1.25
4,HMWDRFGELDSAEEINRIAAAELREGDIDALKVLAEENGLDKDDVEDYIDRLIDELTTPELAAIGKLDV,-0.0336
5,HMWKQISSEAELLPAVRSVIQANPGEAEKLRNGEMAPLEFLTGLVMKKTNGMAVPQIVKTLIKKELKI,0.0805
6,HMWKSEAGKKIIESLAQKYNKSNAQIILRWHIQMGYIVIPGARSENHIKENINIFDFKLTNEEINNILKLN,-0.124
7,HMWMTAQDFRNSSLPWSATTSYNEGQSVRVVDGSNTYYYIAIVKTQPGQSPTTHPTSWREVDA,0.311
8,HMWNLPDPVVRPEGNVTVYENFKNTVEVLNREADLVLKFLQNEFGTSANIDDTGRARLTGSFSTDRVSSVI,-0.529
9,HMWSNTAVIDRIRQLHEEGQPISSQSVQVNHKSLYMAAIKRFRGWKRAVEAAGIDYRQIRLR,0.404
10,HMWWTPIILRDALFGVQRFEDFQKNLDVSRATLSSRLTRLVDEGLMEKVEYQQHPVRHEYVLTEKGR,0.194
11,HMYAGTWTTESGQWKYRQDDGTYAKGWLQDTDGRWYYFDANGRMLSNTATPDGYQVGEDGAWVNH,-0.651
12,HMYAMTAEDWIVSGNRKYINDDLQGAIADYTKAIEIDPNYAAIYLVRGKAKYELKNYQGAIEDYTKAIE,-1.48
13,HMYAPKIETIQVPQDKIREVIGTGGKVIREIVETTGAKIDIGDTGLIKVASSDGEAIRAALDWINSIVAE,-0.758
14,HMYATQLLQLEEMGFFDRAENIRALRATNGNVNAAVERL,-0.114
15,HMYDASELNKALEEAKKLDLNNYTEESSEALKNAISKAEEALLSKDKETINSALEELNKAMDSL,-0.615
16,HMYDEAAIRKAVMTFVTDNRDERLDLAKISAVLTSKFGNINFDELGYKRFSSFIDSFPELRRNNTFVSLR,-0.193
17,HMYDFGVILQKLRKEKGFTQEQLARLIHKESSIISRYEKGLQNPTFETVKEFAAIFNVSMDYLAG,-0.255
18,HMYEGNEFSSTGMFREDILAITAVHPMREDAVTELLARSNESEETLEMMIDEELLRRVAYGNHNYYMRRFR,-0.388
19,HMYEHLKALRESLGMTQAEFGESVGVAKSTYNNYEIGARDPKSDFWIAVAQRYGVTIDYLMGFSDDPKKT,0.253
20,HMYELSDTEWKIIEQVGLGASNKEIAASLHFSEGTIRNYLSVILDKLSLRDRTQLAILYVKMN,-0.122
21,HMYEPPTEDEKRVLSLLATRESIVRSDVDRLLGVSQSTANRILKQMIEKYLISQEGTGKNTKYIK,-0.113
22,HMYESAMSDLHARIMSSDDPHGEIYKMLTQSGPEAKYIQDMYNETSIDRGLHPDDDFEDIIDAMVAELDD,-1.24

row,Sequence,soluble fraction (log2)
1,HMYEVVPNMKGLSYEQAATALRTAGLEPELSDSIYDDKTRPGTVLEQSPRANTKVKPGRTVYLTVNAF,0.105
2,HMYFFNTFTQRLFDNPELTQEEAIRQMYPGISGVQTAEKLQENFMADVYIQAAIRQEIVVQLIR,0.22
3,HMYGSLGEYELAAVQWIYGKGKITTRELSSLIGKGLTLSSKTLRGLAAKGILEWHGNSKNDPSQFYSLP,-0.196
4,HMYHADLIGLEARSTAGDKLGEVNAVYNFGAGDLIEIKMTDGNLEMLPFTRQYVPTVSIKDGFIIVQM,-1.08
5,HMYHIYPVADNDTPKLSADRLEYSLSNALLTNKLLNIDEIKKIYNDVILDKDEDGTLELSFKS,0.167
6,HMYIDANTALLAKRIQAKNGFLPLSDKSTAEEIYAEFGISKKAFKKALGALYKERLVRIGDEGVVWV,0.0176
7,HMYINVQNARTIASFRSSLWRMHRDFTNQGYITADGLKTFLEMGKLYEDAGGNDIYHSKLLPEITALEIKY,-0.421
8,HMYKDVVVPNTVGDSEEKAYQTLSALGLVVNITYDEDASKSDRVVTSQNPTNKTIKEGESVNIVVNKQP,-0.242
9,HMYKIDFAEGDRVIIKGGAFSGLRATVVSLHPEKGMAKIKVYMFGDRETLVDIEVSQLEKDK,0.113
10,HMYKTKVDIAYDMLMERITEGVYKPGEKLVITHISKELGISDIPVREAIRRLESEGYVKILPNQGAIVYD,-0.185
11,HMYLGRKATLLSSISGEKMGNAEVLADGNLMSIYVKSLTGEPLSYGSTVLIIKHSEDQNFYLVQN,-0.65
12,HMYLQKGISNGKVYLSIVHGYRDPVTKKVRRKTIRSLGYLEDLEKQYADPIKHFEAVVAKMNEEEALE,0.0302
13,HMYLSNPTYRGDSLVDALTQIGVDASFASRRDLARKNGIENYTGSAKQNLELLQLLREGRLR,-0.173
14,HMYLYADIYKKLEEKIKNMEVGEKLPSERAMVQEYGVSRNVLREALVLLSERGLIEIRPGKGSYVTNQQ,-0.177
15,HMYNKKAYVNTNSDFLNVRSEASTESSVVDKLARGTEVNIVGNIQNGFYPIVLNEKNAWVSSDWISFEKPT,≥ 0.43
16,HMYNNDEIEKIQTMYNAIYQLNDIEKALIMLFLEDKSYKEIAEIMGISEGNARIKMMRTKDKLKNLISKN,-0.608
17,HMYNNGYVNSDRVNFRKGASTNSDIYKVLDKNTSVTILDYEGDWSKVKINDTVGYVYTKYITAG,-0.0882
18,HMYNTDAMGVRIGELRRAKGLTQEAFAKTLGISAQAVSKWETGLGFPDISLLPMIAETLGTKIETLFGAE,-0.272
19,HMYPATGTVVTAGGHLNMRSEPDRSGAILARIPNGTALTLTGKNGDWYAATYAGRSGYVSAQYISLS,-0.13
20,HMYPDNSGDIQQLAQNIFRQENVSVDRDGLALISSRLGSDHAATRSEIEKLALLAGPGGTLTFETISEVLG,-0.942
21,HMYPEDMMSLMRRALRLINHLESNRKDRHNSRQLELTESKIRRLARYYKGRGLIETEWAYKRDQLRLLV,-0.184
22,HMYPIYDYISNMYLGKHLNAGMSLEEARGIMDEMLEKLLFDVPEEYHIDRDHFYEYLKKYYTERFSA,-1.7

row,Sequence,soluble fraction (log2)
1,HMYPQLIGFKVIDEDKGEVGVVKEVSESMHQILLTVMKGKKEILIPLAEEFITKVNRHKKELFMVLPDG,-0.383
2,HMYRLDVEISDEIKRDIDEETLSEIKGIIAEDPRPSYQNDETRIYRFTFAGREISFRVKDRTATVTEIL,-0.736
3,HMYRPLYQQVYDFLVKQIAAGEWGPGESLPSEQALAGRLNVSQGTVRKALDALAADSLIDRRQGKGTYVAE,0.32
4,HMYRPQQEFTMRDLFQNNLNGSESASVRRDALGAELGIGYGNAKRFLERLNHYGVSREEFTAALEKLESE,-0.205
5,HMYRSGGYTGAGKDDEEAGVVHRNEFVNTADAVRNPHVKRFLDVFNVAQKDGTIRMLNTSQILERARLDA,0.0596
6,HMYRYGETPMVVVPDLIGRTVSDIYEEMNADFRLEKFGNGNTVISQAPKPGERVEQGSVIRVYLSGQDQ,-0.206
7,HMYSDERLQTFMELLPFFVEELSNKHVTRYNVWQNYREAYPNGYGRSQFFFHLGQNLEAKKK,-0.0353
8,HMYSIKEFSFEVTTPGQRLDLFLSEELIGQTRSSIQNLILKKYVTVNGQVSKASYKVKTGEFISVKIPV,0.22
9,HMYSINKTEFGERIKSAREELKMTQTQLAQLLKTSQTTVAKYEHGEQIPRADVLATISKATGKSTDWLLFG,0.11
10,HMYSKQRELIMEAVFKNRVHPTAEYVYKLLKKDHPELSLGTVYRNLNYWAENNMLKKINVPGGSDRFDGT,0.236
11,HMYSLGPKERSIVSFIANRPGSRSGQIAKSLQIPLPTIKRILNGLVENKVIARHGIGAGTNYVVEDQA,0.0323
12,HMYSMSAPMPGVILEIKVAPGDQVNKGDVVMVLEAMKMKNDLHAARTGTVESIDINSGEQVKYGQVLLRFV,0.0869
13,HMYSQIGYGSSGSDVRKLQEILNGKGYNLSVDGQFGAKTKSAVRDYQSKNGLSVDGIVGVNTWGKLT,0.22
14,HMYSYNKEEVGKRIKSIRQQKGLTQESFGELFGASKGNVATWEKGISLPNASRLREIADLVSITVEELLYG,0.00486
15,HMYTLGEESDGTVRLLELYDIIKNKNEKIFVVDELDRSLHPNLTFNFVKKYLSIENKSQLIVSTH,-1.11
16,HMYVKKSSFVKKSLNNYEFKITDNTNDLLIFYKGMLPDLFREEQGIVVEGLIDKNNNIVASKV,-0.0152
17,HMYVSGVPAITSIERVSTPGRRVYAGYTTVPKVIGGMGVSILTTSRGVMTDAEARRQKVGGELLAKV,-0.29
18,HMYVTGSAIRRLREKRKLTQAQLAAALSVSDKTVSKWETARGLPDITLLEPLARALQVSVPELLSGEEV,-0.0388
19,HMYVVLYPGMARDEAVQVMNELQSRGIDYYEKNGNIYVPKTDENSLRMELANLGYPKTTNNYD,-0.188
20,HMYYHQIIGLDVVDENGNTLGKIKEILSPGANDVWVVKRKQKNDLLLPVIDDVIKDVDLAAGKVHVELLEG,-1.38

# Reference: the domain aggregation screens of Martell et al. (2025)
